Tested on: Deoxymab-3 (DX3), humanized 3E10 antinuclear IgG1 (humanized (3E10 CDRs from MRL/lpr mouse on human IgG1 framework))
Experiment: SPR
Conditions: 1:1 kinetic fit, SPR Biacore T200, CM5 chip with neutravidin, biotinylated ssDNA (0.025 uM) immobilized, DX3 in PBS pH 7.4, contact 120 s, dissociation 400 s, temperature not …

30-mer single-stranded DNA oligonucleotide
Kd (experiment 1, DX3 titrated from 500 nM): 113 nM | Kd (experiment 2 (replicate)): 112 nM

— paper PMC11363321
